Laboratory results published in patent US20180185450A1 (Sanofi, published 2018).

biological target: human glucagon receptor (human, UniProt P47871 26-477); assay: cell-based or functional assay
Sequence (P47871 26-477): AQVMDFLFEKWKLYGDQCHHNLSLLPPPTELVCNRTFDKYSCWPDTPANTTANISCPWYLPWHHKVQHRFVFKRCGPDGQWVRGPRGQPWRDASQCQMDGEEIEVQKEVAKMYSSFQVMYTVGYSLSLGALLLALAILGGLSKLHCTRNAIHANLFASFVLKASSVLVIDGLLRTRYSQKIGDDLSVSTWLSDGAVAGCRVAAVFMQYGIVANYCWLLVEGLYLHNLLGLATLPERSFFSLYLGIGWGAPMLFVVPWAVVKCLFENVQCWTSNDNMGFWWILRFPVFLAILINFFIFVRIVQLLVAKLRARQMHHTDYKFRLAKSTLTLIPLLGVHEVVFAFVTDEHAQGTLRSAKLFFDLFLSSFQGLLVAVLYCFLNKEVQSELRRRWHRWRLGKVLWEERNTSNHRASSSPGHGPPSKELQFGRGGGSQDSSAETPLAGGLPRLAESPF

In order of falling “EC50 hGlucagon-R (cAMP)” value:
1. HXQGTFTSDLSKQXESRRAQDFIEWLKAGGPSSGAPPPS (dSer at 2; Dab(γE-x53) at 14; C-terminal NH2) [SEQ ID NO: 72]  386 pM
2. HXQGTFTSDLSKQKESRAAQDFIEWLKAGGPSSGAPPPS (dSer at 2; K(x53) at 14; C-terminal NH2) [SEQ ID NO: 66]  113 pM
3. HXQGTFTSDLSKQKESRRAQLFIEWLKAGGPSSGAPPPS (dSer at 2; K(x53) at 14; C-terminal NH2) [SEQ ID NO: 69]  52.4 pM
4. HXQGTFTSDLSKQKESRAAQLFIEWLKAGGPSSGAPPPS (dSer at 2; K(γE-x53) at 14; C-terminal NH2) [SEQ ID NO: 70]  40.9 pM
5. HXQGTFTSDLSKQKESRAAQDFIEWLKAGGPSSGAPPPS (dSer at 2; K(GABA-x74) at 14; C-terminal NH2) [SEQ ID NO: 56]  29.3 pM
6. HXQGTFTSDLSKQKESKAAQDFIEWLKAGGPSSGAPPPS (dSer at 2; K(GABA-x53) at 14; C-terminal NH2) [SEQ ID NO: 7]  20.7 pM
7. HXQGTFTSDLSKQKESRAAQDFIEWLKAGGPSSGAPPPS (dSer at 2; K(γE-x77) at 14; C-terminal NH2) [SEQ ID NO: 60]  19.3 pM
8. HXQGTFTSDLSKQKESRRAQLFIEWLKAGGPSSGAPPPSK (dSer at 2; K(γE-x53) at 14; K(γE-x53) at 40; C-terminal NH2) [SEQ ID NO: 6]  18.9 pM
9. HXQGTFTSDLSKQKESRAAQDFIEWLKAGGPSSGAPPPS (dSer at 2; K(γE-x79) at 14; C-terminal NH2) [SEQ ID NO: 61]  16 pM
10. HXQGTFTSDLSKQKESRAAQDFIEWLKAGGPSSGAPPPS (dSer at 2; K(γE-x74) at 14; C-terminal NH2) [SEQ ID NO: 55]  15.8 pM
11. HXQGTFTSDLSKQKESRAAQDFIEWLKAGGPSSGAPPPS (dSer at 2; K(GABA-x60) at 14; C-terminal NH2) [SEQ ID NO: 58]  15.1 pM
12. HXQGTFTSDLSKQKESRAAQDFIEWLKAGGPSSGAPPPS (dSer at 2; K(γE-x80) at 14; C-terminal NH2) [SEQ ID NO: 62]  10.6 pM
13. HXQGTFTSDLSKQKESRAAQDFIEWLKAGGPSSGAPPPS (dSer at 2; K(γE-x81) at 14; C-terminal NH2) [SEQ ID NO: 63]  8.4 pM
14. HXQGTFTSDLSKQKESRAAQDFIEWLKAGGPSSGAPPPS (dSer at 2; K(γE-x60) at 14; C-terminal NH2) [SEQ ID NO: 57]  8 pM
15. HXQGTFTSDLSKQKESRAAQDFIEWLKAGGPSSGAPPPS (dSer at 2; K(γE-x82) at 14; C-terminal NH2) [SEQ ID NO: 64]  6.9 pM
16. HXQGTFTSDLSKQKESRAAQDFIEWLKAGGPSSGAPPPS (dSer at 2; K(γE-x76) at 14; C-terminal NH2) [SEQ ID NO: 59]  6.8 pM
17. HXQGTFTSDLSKQKESRAAQDFIEWLKAGGPSSGAPPPS (dSer at 2; K(GABA-x70) at 14; C-terminal NH2) [SEQ ID NO: 53]  6.5 pM
18. HXQGTFTSDLSKQKESRRAQLFIEWLKAGGPSSGAPPPS (dSer at 2; K(γE-x53) at 14; C-terminal NH2) [SEQ ID NO: 68]  5.7 pM
19. HXQGTFTSDLSKQKESRAAQDFIEWLKAGGPSSGAPPPS (dSer at 2; K(γE-x70) at 14; C-terminal NH2) [SEQ ID NO: 65]  5.6 pM
20. HXQGTFTSDLSKQXESRRAQDFIEWLKAGGPSSGAPPPS (dSer at 2; Orn(γE-x53) at 14; C-terminal NH2) [SEQ ID NO: 71]  5.6 pM
21. HXQGTFTSDLSKQKESRAAQDFIEWLKAGGPSSGAPPPS (dSer at 2; K(βA-βA-x70) at 14; C-terminal NH2) [SEQ ID NO: 54]  4 pM
22. HXQGTFTSDLSKQKESRAAQDFIEWLKAGGPSSGAPPPS (dSer at 2; K(γE-x70) at 14; C-terminal NH2) [SEQ ID NO: 51]  3 pM
23. HXQGTFTSDLSKQKDSRRAXDFIEWLKAGGPSSGAPPPS (dSer at 2; K(γE-x53) at 14; Aib at 20; C-terminal NH2) [SEQ ID NO: 67]  3 pM
24. HXQGTFTSDLSKQKDSRRAQDFIEWLKNGGPSSGAPPPS (dSer at 2; K(γE-x70) at 14; C-terminal NH2) [SEQ ID NO: 8]  2.3 pM
25. HXQGTFTSDLSKQKESRAAQDFIEWLKAGGPSSGAPPPS (dSer at 2; K(γE-γE-x70) at 14; C-terminal NH2) [SEQ ID NO: 52]  2 pM

biological target: human GLP-1 receptor (human, UniProt P43220 24-463); assay: cell-based or functional assay

In order of falling “EC50 hGLP-1R (cAMP)” value:
1. HXQGTFTSDLSKQKESRRAQLFIEWLKAGGPSSGAPPPSK (dSer at 2; K(γE-x53) at 14; K(γE-x53) at 40; C-terminal NH2) [SEQ ID NO: 6]  141 pM
2. HXQGTFTSDLSKQKESRAAQDFIEWLKAGGPSSGAPPPS (dSer at 2; K(GABA-x60) at 14; C-terminal NH2) [SEQ ID NO: 58]  45.6 pM
3. HXQGTFTSDLSKQKESRAAQDFIEWLKAGGPSSGAPPPS (dSer at 2; K(γE-x60) at 14; C-terminal NH2) [SEQ ID NO: 57]  45 pM
4. HXQGTFTSDLSKQKESRRAQLFIEWLKAGGPSSGAPPPS (dSer at 2; K(x53) at 14; C-terminal NH2) [SEQ ID NO: 69]  44.8 pM
5. HXQGTFTSDLSKQKESRAAQDFIEWLKAGGPSSGAPPPS (dSer at 2; K(γE-x77) at 14; C-terminal NH2) [SEQ ID NO: 60]  38.4 pM
6. HXQGTFTSDLSKQXESRRAQDFIEWLKAGGPSSGAPPPS (dSer at 2; Dab(γE-x53) at 14; C-terminal NH2) [SEQ ID NO: 72]  25.9 pM
7. HXQGTFTSDLSKQXESRRAQDFIEWLKAGGPSSGAPPPS (dSer at 2; Orn(γE-x53) at 14; C-terminal NH2) [SEQ ID NO: 71]  20.5 pM
8. HXQGTFTSDLSKQKDSRRAXDFIEWLKAGGPSSGAPPPS (dSer at 2; K(γE-x53) at 14; Aib at 20; C-terminal NH2) [SEQ ID NO: 67]  15.7 pM
9. HXQGTFTSDLSKQKESRAAQDFIEWLKAGGPSSGAPPPS (dSer at 2; K(x53) at 14; C-terminal NH2) [SEQ ID NO: 66]  8.4 pM
10. HXQGTFTSDLSKQKESRAAQDFIEWLKAGGPSSGAPPPS (dSer at 2; K(γE-x76) at 14; C-terminal NH2) [SEQ ID NO: 59]  7.9 pM
11. HXQGTFTSDLSKQKESRRAQLFIEWLKAGGPSSGAPPPS (dSer at 2; K(γE-x53) at 14; C-terminal NH2) [SEQ ID NO: 68]  7.9 pM
12. HXQGTFTSDLSKQKESRAAQLFIEWLKAGGPSSGAPPPS (dSer at 2; K(γE-x53) at 14; C-terminal NH2) [SEQ ID NO: 70]  6.5 pM
13. HXQGTFTSDLSKQKDSRRAQDFIEWLKNGGPSSGAPPPS (dSer at 2; K(γE-x70) at 14; C-terminal NH2) [SEQ ID NO: 8]  6.3 pM
14. HXQGTFTSDLSKQKESRAAQDFIEWLKAGGPSSGAPPPS (dSer at 2; K(GABA-x70) at 14; C-terminal NH2) [SEQ ID NO: 53]  5.4 pM
15. HXQGTFTSDLSKQKESRAAQDFIEWLKAGGPSSGAPPPS (dSer at 2; K(γE-x74) at 14; C-terminal NH2) [SEQ ID NO: 55]  5.4 pM
16. HXQGTFTSDLSKQKESRAAQDFIEWLKAGGPSSGAPPPS (dSer at 2; K(γE-x79) at 14; C-terminal NH2) [SEQ ID NO: 61]  5.3 pM
17. HXQGTFTSDLSKQKESRAAQDFIEWLKAGGPSSGAPPPS (dSer at 2; K(γE-x70) at 14; C-terminal NH2) [SEQ ID NO: 65]  5 pM
18. HXQGTFTSDLSKQKESRAAQDFIEWLKAGGPSSGAPPPS (dSer at 2; K(γE-x81) at 14; C-terminal NH2) [SEQ ID NO: 63]  4.9 pM
19. HXQGTFTSDLSKQKESRAAQDFIEWLKAGGPSSGAPPPS (dSer at 2; K(βA-βA-x70) at 14; C-terminal NH2) [SEQ ID NO: 54]  4.8 pM
20. HXQGTFTSDLSKQKESRAAQDFIEWLKAGGPSSGAPPPS (dSer at 2; K(GABA-x74) at 14; C-terminal NH2) [SEQ ID NO: 56]  4.5 pM
21. HXQGTFTSDLSKQKESRAAQDFIEWLKAGGPSSGAPPPS (dSer at 2; K(γE-x80) at 14; C-terminal NH2) [SEQ ID NO: 62]  3.9 pM
22. HXQGTFTSDLSKQKESKAAQDFIEWLKAGGPSSGAPPPS (dSer at 2; K(GABA-x53) at 14; C-terminal NH2) [SEQ ID NO: 7]  3.5 pM
23. HXQGTFTSDLSKQKESRAAQDFIEWLKAGGPSSGAPPPS (dSer at 2; K(γE-x82) at 14; C-terminal NH2) [SEQ ID NO: 64]  3.1 pM
24. HXQGTFTSDLSKQKESRAAQDFIEWLKAGGPSSGAPPPS (dSer at 2; K(γE-x70) at 14; C-terminal NH2) [SEQ ID NO: 51]  2.7 pM
25. HXQGTFTSDLSKQKESRAAQDFIEWLKAGGPSSGAPPPS (dSer at 2; K(γE-γE-x70) at 14; C-terminal NH2) [SEQ ID NO: 52]  1.9 pM
